Results published in patent publication US20260108607A1 (BEIJING DCTY BIOTECH, published 2026).
Positions count from the first letter of the chain named.

B1: humanized antibody 40-2-H9 (98G2E9-VH5 + VL5) (scFv)
scFv: EVQLLESGGGLVQPGGSLKLSCAASGFTFSGYAMSWVRQTPGKGLEWVATITSGGSYTYYPDSVKGRFTISRDNSKNTLYLQMNSLRAEDTAMYYCARKDYGNYWFAYWGQGTLVTVSSGGGGSGGGGSGGGGSGGGGSDVVMTQSPLSLPVTLGDPASISCRSSQSLVHSDGNTYLHWYLQRPGQSPRLLIYKVSNRFSGVPDRFSGSGSGTDFTLKISRVEAEDVGVYFCSQTTQVPWTFGGGTKLEIK
notes: the format in the SPR assay is not clearly stated
B2: humanized antibody 40-2-H10 (98G2E9-VH5 + VL6) (scFv)
scFv: B1 scFv with D156Q, P157Q, R183K, R189K
notes: as for B1
B3: humanized antibody 40-2-H13 (98G2E9-VH6 + VL6) (scFv)
scFv: B1 scFv with G42E, S75A, D156Q, P157Q, R183K, R189K
notes: as for B1
B4: humanized antibody 40-2-H12 (98G2E9-VH6 + VL5) (scFv)
scFv: B1 scFv with G42E, S75A
notes: as for B1

Assays:
[1] = biological target: T1, EGFRvIII target antigen (SPR ligand) (UniProt P00533 25-645, limits assumed); test: SPR
T1 construct: also called EGFRvIII antigen

[2] = biological target: T1, EGFRvIII target antigen (SPR ligand); test: SPR; antibody as analyte

Binder | fold reduction of affinity against the murine antibody from clone #40-2 [1] [fold] | Kd [2] [nM] | koff [2] [s⁻¹] | kon [2] [M⁻¹ s⁻¹]
B1 | ~2 | 112 | 0.00307 | 27400
B2 | ~2 | 135 | 0.00345 | 25600
B3 | ~2 | 102 | 0.00301 | 29400
B4 | ~2 | 102 | 0.00266 | 26000
